The test addresses mmac_human MMACHC (UniProt Q9Y4U1).

Chain of Methionine synthase (Homo sapiens), Q99707 P1173L (Q99707 whole entry P1173L): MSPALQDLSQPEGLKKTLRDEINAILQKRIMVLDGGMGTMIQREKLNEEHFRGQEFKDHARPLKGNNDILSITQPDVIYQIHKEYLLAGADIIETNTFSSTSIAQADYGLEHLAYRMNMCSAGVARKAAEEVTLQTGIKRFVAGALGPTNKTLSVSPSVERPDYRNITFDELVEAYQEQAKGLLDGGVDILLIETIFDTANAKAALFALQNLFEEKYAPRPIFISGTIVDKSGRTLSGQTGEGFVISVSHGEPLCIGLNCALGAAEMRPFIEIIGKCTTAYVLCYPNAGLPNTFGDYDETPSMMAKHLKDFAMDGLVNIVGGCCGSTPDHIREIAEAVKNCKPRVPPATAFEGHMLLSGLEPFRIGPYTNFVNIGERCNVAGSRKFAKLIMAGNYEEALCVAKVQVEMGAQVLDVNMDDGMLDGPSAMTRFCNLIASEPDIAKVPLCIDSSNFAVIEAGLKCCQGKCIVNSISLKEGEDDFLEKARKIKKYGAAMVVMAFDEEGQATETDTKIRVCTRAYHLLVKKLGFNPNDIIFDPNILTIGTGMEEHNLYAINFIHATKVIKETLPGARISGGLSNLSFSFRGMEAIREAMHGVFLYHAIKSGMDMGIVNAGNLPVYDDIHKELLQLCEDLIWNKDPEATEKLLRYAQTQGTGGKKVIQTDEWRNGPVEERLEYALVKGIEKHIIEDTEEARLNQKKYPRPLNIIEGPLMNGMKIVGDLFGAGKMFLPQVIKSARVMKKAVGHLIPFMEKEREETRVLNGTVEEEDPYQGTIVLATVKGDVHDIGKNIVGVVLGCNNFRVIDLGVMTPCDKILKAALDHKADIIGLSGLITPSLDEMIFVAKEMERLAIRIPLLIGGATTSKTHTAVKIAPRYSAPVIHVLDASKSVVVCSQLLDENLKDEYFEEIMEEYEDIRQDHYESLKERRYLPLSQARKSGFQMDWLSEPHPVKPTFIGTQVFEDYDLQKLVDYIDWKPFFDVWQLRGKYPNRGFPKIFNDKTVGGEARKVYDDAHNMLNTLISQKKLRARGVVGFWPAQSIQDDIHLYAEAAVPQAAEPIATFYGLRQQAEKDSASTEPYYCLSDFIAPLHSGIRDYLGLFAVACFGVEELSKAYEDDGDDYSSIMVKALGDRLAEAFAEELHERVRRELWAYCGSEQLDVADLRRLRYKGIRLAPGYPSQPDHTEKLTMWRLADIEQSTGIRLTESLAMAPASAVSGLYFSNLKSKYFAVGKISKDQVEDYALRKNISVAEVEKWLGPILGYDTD
Chain of mmac_human MMACHC (Q9Y4U1 whole entry): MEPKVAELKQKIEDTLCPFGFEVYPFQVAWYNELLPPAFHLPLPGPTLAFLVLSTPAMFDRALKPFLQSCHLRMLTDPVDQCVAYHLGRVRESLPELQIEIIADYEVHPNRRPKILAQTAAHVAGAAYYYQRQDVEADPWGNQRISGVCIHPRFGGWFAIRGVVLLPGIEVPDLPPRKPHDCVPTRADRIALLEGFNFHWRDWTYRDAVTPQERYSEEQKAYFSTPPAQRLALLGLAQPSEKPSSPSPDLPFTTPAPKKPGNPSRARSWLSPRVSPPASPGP

On to “Methionine synthase (Homo sapiens), Q99707 P1173L”, for which the “effect of a mutation on the interaction” value is reported as “increasing interaction strength”.

These data come from IntAct's records for PubMed 23825108.
